This passage reports gMFI results from US20240254227A1 (Alector, published 2024).

Assay [1] deals with T1, human CD300LB transiently expressed on HEK293 cells (human, UniProt A8K4G0 18-201).
T1 construct: CD300LB expression constructs'; also called huCD300LB HEK293
T1 sequence: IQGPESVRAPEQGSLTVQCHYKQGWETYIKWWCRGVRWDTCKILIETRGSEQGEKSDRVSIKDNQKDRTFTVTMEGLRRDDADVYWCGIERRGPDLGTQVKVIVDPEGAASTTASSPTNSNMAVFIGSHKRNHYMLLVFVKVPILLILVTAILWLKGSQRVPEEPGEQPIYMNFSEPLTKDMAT
As to the kind of experiment: flow cytometry, transfected HEK293, 10 ug/mL, isotype subtracted. As for the experimental part: In addition, supernatants or purified antibodies were tested for species crossreactivity by comparing the binding of human, mouse, and cynomolgous monkey CD300LB expressing cell lines. HEK293 were transfected with […] of human, mouse, and cyno CD300LB expression constructs using the Mirus system in 10 cm tissue culture dishes. Cells were then incubated for 24 hours in complete medium. Cells were harvested by incubation in TrypLE Express, then washed with PBS and labeled with 200 nM CFSE, 500 nM VioBlue, or a combination of the two to discriminate between human, mouse, and cyno CD300LB expressing cells. Cells were washed thoroughly with PBS containing 2% fetal bovine serum then resuspended at a total of 240,000 cells per well. Purified antibodies at 10 μg/mL were added and incubated for one hour before the cells were washed again and stained with an APC-labeled anti-human or anti-mouse secondary. Cells were then analyzed using a BD FACSCanto II. Antibodies were analyzed for specific binding to human, mouse, or cyno CD300LB by FlowJo software by gating on live cells, then the APC gMFI calculated for each labeled population minus the gMFI of the isotype control.
Background: Flow cytometry measures light scatter and fluorescence of single cells or particles in a stream.

The target of assay [2] is T2, human CD300LB on primary human monocytes (human, UniProt A8K4G0 18-201).
T2 construct: Endogenous protein on primary cells; that the target is CD300LB is inferred from the antibodies being anti-CD300LB antibodies; also called Monocyte donor 1281; Monocyte donor 1282
T2 sequence: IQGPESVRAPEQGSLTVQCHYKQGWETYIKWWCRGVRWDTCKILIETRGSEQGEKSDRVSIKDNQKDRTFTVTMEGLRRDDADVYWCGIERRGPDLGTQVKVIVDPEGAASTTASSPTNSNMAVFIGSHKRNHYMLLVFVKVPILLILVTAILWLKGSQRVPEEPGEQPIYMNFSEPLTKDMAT
As to the kind of experiment: flow cytometry, primary human monocytes donor 1282, 10 ug/mL antibody, isotype control subtracted. As for the experimental part:
(§1) Human monocytes from various donors were isolated from whole blood using RosetteSep Human Monocyte Enrichment Cocktail (Stemcell technologies) and Ficoll centrifugation per manufacturer protocols. After lysing red blood cells with ACK lysing buffer, monocytes were resuspended in complete media (RPMI, 10% FBS, Pen/Strep, L-glutamine, HEPES, non-essential amino acid, Sodium pyruvate). To obtain macrophages from these isolated monocytes, 100 ng/ml human M-CSF and 8% v/v human serum were added to the cells for 5-7 days. Cells were counted on the day of the experiment and plated at 100,000 cells per well in a round-bottom 96 well plate. Cells were incubated with TruStain Fc block and 10 μg/mL antibody for 1 hour on ice before washing with 250 μL ice cold PBS twice. Cells were then incubated with the appropriate APC-conjugated secondary antibodies for 20 minutes in the dark on ice. Finally, cells were washed twice with ice cold FACS buffer and then resuspended in 100 μL FACS buffer containing 1% propidium iodide. Samples were immediately analyzed using a BD FACSCanto flow cytometer. The gMFI was calculated using FlowJo software minus the gMFI of the appropriate isotype control.

The target of assay [3] is T2, human CD300LB on primary human monocytes. As to the kind of experiment: flow cytometry, primary human monocytes donor 1283, 10 ug/mL antibody, isotype control subtracted. As for the experimental part: as §1
The target is the same in assay [4]. As to the kind of experiment: flow cytometry, primary human monocytes donor 1284, 10 ug/mL antibody, isotype control subtracted. As for the experimental part:
as §1

Assay [5] concerns the target T3, human CD300LB on primary human macrophages (human, UniProt A8K4G0 18-201).
T3 sequence: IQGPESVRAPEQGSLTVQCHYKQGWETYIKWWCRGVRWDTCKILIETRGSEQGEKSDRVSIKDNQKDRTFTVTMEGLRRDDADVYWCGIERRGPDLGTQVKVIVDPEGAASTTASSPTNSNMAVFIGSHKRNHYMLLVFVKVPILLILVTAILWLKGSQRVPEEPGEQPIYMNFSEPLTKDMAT
Briefly: flow cytometry, primary human macrophages donor 1278, 10 ug/mL antibody, isotype control subtracted. As for the experimental part: as §1

B1: anti-CD300LB antibody CD-07 (antibody, V domains shown)
VH: QVQLVQSGAEVKKPGASVKVSCKASGYTFTNYRMHWVRQAPGQGLEWMGWINPNSGGTIYAQKFQGRVTMTRDTSTSTVYMELSSLRSEDTAVYYCARDLDYWGQGTLVTVSS
VL: DIQMTQSPSSLSASVGDRVTITCQASQDISNYLNWYQQKPGKAPKLLIYGASSLQSGVPSRFSGSGSGTDFTLTISSLQPEDFATYYCQQSYSTPWTFGPGTKVEIK
Consider B1, for which the gMFI in assay [1] was 686 gMFI; in assay [2] it was 468 gMFI; in assay [3] it was 47 gMFI; in assay [4] it was -189 gMFI; in assay [5], 211000 gMFI.

B2: anti-CD300LB antibody CD-06 (antibody, V domains shown)
VH: QVQLVQSGAEVKKPGASVKVSCKASGYTFTTYAVHWVRQAPGQGLEWMGIVNPNSGGTNYAQKFQGRVTMTRDTSTSTVYMELSSLRSEDTAVYYCARDIVPMNNFYNYYYGMDVWGQGTTVTVSS
VL: DIQMTQSPSSLSASVGDRVTITCRASQSISSYLNWYQQKPGKAPKLLIYATSTLQSGVPSRFSGSGSGTDFTLTISSLQPEDFATYYCQQSYRIPYTFGQGTKVEIK
As for B2, the gMFI in assay [1] came to 314 gMFI; in assay [2], 3440 gMFI; in assay [3], 2470 gMFI; in assay [4], 1010 gMFI; in assay [5], 169000 gMFI.

B3: anti-CD300LB antibody CD-05 (antibody, V domains shown)
VH: QVQLVQSGAEVKKPGASVKVSCKASGYTFSRYYINWVRQAPGQGLEWMGWINPNSGGTNYAQKFQGRVTMTRDTSTSTVYMELSSLRSEDTAVYYCTTDQLRFGKTGPYYGMDVWGQGTTVTVSS
VL: DIQMTQSPSSLSASVGDRVTITCRASQNIGTYLNWYQQKPGKAPKLLIYAASSLQSGVPSRFSGSGSGTDFTLTISSLQPEDFATYYCQQSYSDTLTFGGGTKVEIK
As for B3, the gMFI in assay [1] amounted to 933 gMFI; in assay [2], 1560 gMFI; in assay [3], 935 gMFI; in assay [4], 166 gMFI; in assay [5] it was 175000 gMFI.
